The subject of the data set is MS2 coat protein. Kind of data set: apparent KD of MS2 coat protein; designed switch direction (-1 OFF switch, 1 ON switch): 1; higher = weaker reporter binding. The method, boiled down: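 Apparent KD, taken as the median over clusters for each design, was obtained by curve-fitting normalised cluster fluorescence. Designed RNA switches had been transcribed on Illumina chips by stalled E. coli RNA polymerase and titrated with SNAP-549-labelled MS2 coat protein, doubling from 0.7 or 1.5 nM to 3 µM.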

Setting [1] is: input ligand: microRNA oligo, concentration not stated.
The mark [2] stands for this setting: Eterna round: R95, input ligand: FMN 200 uM.
The mark [3] stands for this setting: Eterna round: R95, input ligand: microRNA oligo, concentration not stated.
[4] abbreviates: Eterna round: R95, input ligand: none.

The text below walks through data of the supplement of paper PMC9170038.

Consider “GUGGUCAGACAUGAGGAUCACCCAUGUGGAAUAAAUAAGGUCAAGGAUAUUGAAUAUAGGAUAUACAAGAAGGUGAGGUUGGUG (Eterna round: R96, puzzle: Same State NG 3)”, for which the “apparent KD of MS2 coat protein” value worked out at 140 nM (input ligand: FMN 200 uM), 94.9 nM under setting [1] and 115 nM (input ligand: none).

With “UUUAGUUGCGGGCAGGAUAUGUAUUAAAAUACAUGAGGAUCACCCAUGUGAGACCGAAAAGGUCUACAGAAGGGCCAAUCGCGAC [Laonerce - 20] (puzzle: Same State 2)”, the “apparent KD of MS2 coat protein” value reads like this: under setting [2], 16.1 nM; under setting [3], 66 nM; under setting [4], 79.5 nM.

On to “GUAGCAUGCAGGCAGGAUAUUCAUAUUAAAACAUGAGGAUCACCCAUGUAGGCCGAAAGGCCUUGGGAGAAGGGCCACAUGCUAC [Xeonanis - 18] (puzzle: Same State 2)”, for which the “apparent KD of MS2 coat protein” value is 34.3 nM under setting [2], 453 nM under setting [3] and 1020 nM under setting [4].

“UGCUAGUGGGUAGGAUAUUUAGGAUAUGGGAAAGACUAAGUCUGUAGGUCACCUAACCCAGAAGGAGAGAAGGACCAUUCAGCU [pwkr ssNG2 2FMN + F9.27] (Eterna round: R96, puzzle: Same State NG 2)”: the “apparent KD of MS2 coat protein” value reads like this: (input ligand: FMN 200 uM) 30.3 nM; under setting [1], 4.33 nM; (input ligand: none) 28.5 nM.

In the case of “UUAAUAAAGUAAGGAUAUACAUGAGGAUCACUCGUAGAAGGUACUAUACAUGAGGAUCACCCAUGUUCCGGUCAGAAGACUGGA [Mat - Same State NG 1 - JL mod - D4] (Eterna round: R96, puzzle: Same State NG 1)”, the “apparent KD of MS2 coat protein” value under setting [1] is 440 nM.

As to “GCUAGUAAAAUUGUCAACAUGAGGAUCACCCAUGUAUGUUGGCAGGAUAUCGUUUGCAAAGCAAACGAGAAGGGCUAAACUAGC [Mat - Same State NG 3 - JL Mod - D12] (Eterna round: R96, puzzle: Same State NG 3)”, the “apparent KD of MS2 coat protein” value turned out to be 58.2 nM (input ligand: FMN 200 uM), 186 nM under setting [1] and 171 nM (input ligand: none).

Turning to “GAGUGGUAAAGAGGAUAUGCAUUGUUAUUCACUGUAGAAGGUUUUAACAUGAGGAUCACCCAUGUAGGACUAUUCCUGUGUUUC [Parity 63 - Jieux - Same State NG 1] (Eterna round: R96, puzzle: Same State NG 1)”, the “apparent KD of MS2 coat protein” value is, setting by setting: (input ligand: FMN 200 uM) 14.4 nM; under setting [1], 11.8 nM; (input ligand: none) 17.3 nM.

As for “GGCAGGUGCAGGCUUGCUUGCACCUGGAGACAUGAGGAUCACCCAUGUUUGGGACAAGCUUUGCUCUUCGUCUUUUC [JL ViennaUCT Isusreraar mod 6] (puzzle: Sensor for hsa-mir-208a)”, the “apparent KD of MS2 coat protein” value runs as follows: under setting [2], 74.1 nM; under setting [3], 105 nM; under setting [4], 107 nM.

As to “UUAUAACAUGAGGAUCACCCAUGUCAACAAAGUCGAGGAUAUGGGCAUAGAGGAUAAGAACCAGAAGGCGAAUAUU [Mat - Same State 1 - Mod of UCT - D39] (puzzle: Same State 1)”, the “apparent KD of MS2 coat protein” value amounted to 70.8 nM under setting [2], 150 nM under setting [3] and 163 nM under setting [4].

In the case of “CUCAAAACAAGUUGCAGUGUUCGUCUUUAACAUGAGGAUCACCCAUGUAAUAGCCUGGUGGAAGCGCUCGGGCCACC [Qurabila] (puzzle: Sensor for hsa-mir-208a)”, the “apparent KD of MS2 coat protein” value is 23.4 nM under setting [2], 15.6 nM under setting [3] and 25.1 nM under setting [4].

As for “GGUACUAACACAGGAUAUGCUAUCCUUUGGGUAGCAGAAGGGUGGUACAUGAGGAUCACCCAUGUGGUGCCAGGGCGUGAGCCC [JL SSNG1 1.96] (Eterna round: R96, puzzle: Same State NG 1)”, the “apparent KD of MS2 coat protein” value by setting is: (input ligand: FMN 200 uM) 408 nM; under setting [1], 538 nM; (input ligand: none) 659 nM.

As to “GCUCGAUGAAUGUCCUACAUGAGGAUCACCCAUGUUCGUGGGCAGGAUAUUUACAUGCAGAGUGUAGAGAAGGGCCCAUCGAGC [SameState NG3 #63] (Eterna round: R96, puzzle: Same State NG 3)”, the “apparent KD of MS2 coat protein” value was 43.4 nM (input ligand: FMN 200 uM), 63.7 nM under setting [1] and 85.1 nM (input ligand: none).

As for “AUUUUUUAUGCAGGAUAUGAUUAACAUGAGGAUCACCCAUGUGGUGUUGUGAGUAAGGAGAGUGAUCAGAAGGGCAUUUUUUUU [JMF's solution 68] (Eterna round: R96, puzzle: Same State NG 2)”, the “apparent KD of MS2 coat protein” value runs as follows: (input ligand: FMN 200 uM) 579 nM; under setting [1], 318 nM; (input ligand: none) 401 nM.

For the sequence “GGUCCGGCCUGAGCUGGACCGAAGCAUGUACAUGAGGAUCACCCAUGUCAUGUACAGGCUUUUUGCUCGUCUUGUUG [JL-shm-2.14 JL Mod] (puzzle: Sensor for hsa-mir-208a)”, the “apparent KD of MS2 coat protein” value is, setting by setting: under setting [2], 691 nM; under setting [3], 17.2 nM; under setting [4], 746 nM.

“GCGAACUGUGUAGGAUAUUGAGCACUUUUGGAGCAAGAAGGACACCAAGUGCUGACUAUACAUGAGGAUCACCCAUGUUCAGCA [Eternabot solution 22] (Eterna round: R96, puzzle: Same State NG 1)”: under setting [1], the “apparent KD of MS2 coat protein” value turned out to be 21.4 nM.

As to “CGGGUAAUCGUAGGAUAUCUAGGAUAUGAACGAGGAUCACCCGAGCAGCAUCAGCGCAUCAGAGGAGAGAAGGACGAUGAUGCG [pwkr ssNG2 2F5 2FMN.18] (Eterna round: R96, puzzle: Same State NG 2)”, the “apparent KD of MS2 coat protein” value was 164 nM (input ligand: FMN 200 uM), 199 nM under setting [1] and 470 nM (input ligand: none).

For “AGUCCAGCCUGAGCUGGACAAAAGCAUGUACAUGAGGAUCACCCAUGUCAUGUACAAGCUUUUUGCAAAUCUUAAUA [Mat - hsa-mir-208a - Mod of JL - D34] (puzzle: Sensor for hsa-mir-208a)”, the “apparent KD of MS2 coat protein” value runs as follows: under setting [2], 603 nM; under setting [3], 14.6 nM; under setting [4], 807 nM.

Take “GGUAGGUUACUACCAAACAUGAGGAUCACCCAUGUAAGUGGGAAGGAUAUGGUACCUUUUAGGUACCAGAAGGUCCAAUUAAUU [JL Fiskers NG3ss - 2 mod 5] (Eterna round: R96, puzzle: Same State NG 3)”: the “apparent KD of MS2 coat protein” value by setting is: (input ligand: FMN 200 uM) 205 nM; under setting [1], 511 nM; (input ligand: none) 3700 nM.

Take “AAGGUGCAGGUACAGGAUAUGUUGCUCGUAACAUGAGGAUCACCCAUGUACCUAUGAGAUUAAAUGCAGAAGGGUGCACACCAAA [Mat - Same State 2 - Mod of UCT - D91] (Eterna round: R96, puzzle: Same State 2)”: the “apparent KD of MS2 coat protein” value by setting is: (input ligand: FMN 200 uM) 70.6 nM; under setting [1], 168 nM; (input ligand: none) 731 nM.

With “UGUUGUAUUACAGGAUAUCUAUGAUUUUUAUUAAGAGAAGGGUAUUCACAUGAGGAUCACCCAUGUAUAUACGAGGAAGUUGUG [JMF's solution 70] (Eterna round: R96, puzzle: Same State NG 1)”, under setting [1], the “apparent KD of MS2 coat protein” value came to 25.6 nM.

For “GAUAAACAUGAGGAUCACCCAUGUAAUAAUAUGGGAGGAUAUCAGAAUGUAUGUAUGUAAUGAGAAGGCCUAAAUG [Mat - Same State 1 - Mod of Eli - D73] (puzzle: Same State 1)”, the “apparent KD of MS2 coat protein” value by setting is: under setting [2], 104 nM; under setting [3], 425 nM; under setting [4], 309 nM.

For “AACAAUCUAUCUGAGGAUAUCAUGAAUUAAACAUGAGGAUCACCCAUGUGCAGGAAAACUGCAUAUGAGAAGGCAGAUAGAUUGA [salish99_ss2_r3_032] (puzzle: Same State 2)”, the “apparent KD of MS2 coat protein” value runs as follows: under setting [2], 40.2 nM; under setting [3], 707 nM; under setting [4], 58.7 nM.

In the case of “AUUAUACAUGAGGAUCACCCAUGUAAUUAAUUAAUUAAGAUCAAGGAUAUCAGCUCGAUUAGAGCUGAGAAGGUGAUCACAUGU [SSNG3/20-B2] (Eterna round: R96, puzzle: Same State NG 3)”, under setting [1], the “apparent KD of MS2 coat protein” value stood at 170 nM.

Consider “UUAAUUUACUGAGGAUAUCGUGUCGACUGAGGUGACAUGAGGAUCACCCAUGUGAGAAGUGGUAUCGAGAAGGCAGUAUUCAUA [JR_SSNG2_Sub022] (Eterna round: R96, puzzle: Same State NG 2)”, for which the “apparent KD of MS2 coat protein” value runs as follows: (input ligand: FMN 200 uM) 92.6 nM; under setting [1], 306 nM; (input ligand: none) 506 nM.

Consider “ACAGAGUGAAGACAGGAUAUUCGCGAUGGCACAUGAGGAUCACCCAUGUUUUGAGCACAUAAACAGAAGAAGGGUUAAAACUCAG [Zadier] (puzzle: Same State 2)”, for which the “apparent KD of MS2 coat protein” value is, setting by setting: under setting [2], 15 nM; under setting [3], 119 nM; under setting [4], 362 nM.

For “GGAGCCGGCACUGAGGAUAUUCAUAUUAAAACAUGAGGAUCACCCAUGUAGGCCAGAAGGCCUUGGGAGAAGGCAGGUCGGCUCG [Arinin] (Eterna round: R96, puzzle: Same State 2)”, the “apparent KD of MS2 coat protein” value (input ligand: FMN 200 uM) came out at 20 nM, the “apparent KD of MS2 coat protein” value under setting [1] was found to be 188 nM and the “apparent KD of MS2 coat protein” value (input ligand: none) came to 283 nM.

For the sequence “GAGAGAGGAAGCGAGGAUAUCGUGUUGGGUACAUGAGGAUCACCCAUGUUGUAGGUAGAGGUAGGCGAGAAGGCGCAGGAGAGGU [JR_SS2_Sub096] (puzzle: Same State 2)”, the “apparent KD of MS2 coat protein” value is, setting by setting: under setting [2], 105 nM; under setting [3], 67 nM; under setting [4], 195 nM.

For “GUAUCUACAGGUUGCGAUGCUCGUCUGAUACAUGAGGAUCACCCAUGUUAUAGCCCUGUGCUUGCGCAGGGCUGAUU [Sensor for hsa-mir-208a ( MOD of Tearor v.2 )] (puzzle: Sensor for hsa-mir-208a)”, the “apparent KD of MS2 coat protein” value turned out to be 136 nM under setting [2], 33.4 nM under setting [3] and 116 nM under setting [4].
